Earlier results, collected in article PMC6685676.
Like-named read-outs stand apart in the source and are kept apart here.

Tests used:
[1] = target: angiotensin III (Homo sapiens) (UniProt P01019)
[2] = target: angiotensin III (Homo sapiens) (UniProt P01019); remark: listed apart in the source

Sequence of UniProt P01019 (P01019 whole entry, looked up): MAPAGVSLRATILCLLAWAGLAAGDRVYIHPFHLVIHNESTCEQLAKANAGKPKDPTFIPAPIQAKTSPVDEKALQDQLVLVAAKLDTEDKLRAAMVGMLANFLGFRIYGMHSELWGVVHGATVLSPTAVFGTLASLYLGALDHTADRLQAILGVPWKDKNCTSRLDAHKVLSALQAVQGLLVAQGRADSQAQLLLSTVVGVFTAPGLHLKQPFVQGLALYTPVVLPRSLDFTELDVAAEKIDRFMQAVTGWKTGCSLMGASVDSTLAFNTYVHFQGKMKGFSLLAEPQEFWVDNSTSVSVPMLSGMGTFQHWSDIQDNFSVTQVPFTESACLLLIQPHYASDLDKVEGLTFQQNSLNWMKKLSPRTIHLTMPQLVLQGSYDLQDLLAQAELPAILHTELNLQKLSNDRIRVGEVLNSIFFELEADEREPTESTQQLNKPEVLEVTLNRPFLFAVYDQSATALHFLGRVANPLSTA

Substance	Ki [1]	Ki [2]
DPP3 (from UniProt Q9NY33)	88 nM	–
DPP3 (from UniProt O55096)	–	24 nM
